Laboratory results published in patent US5686574.

Tested on: TR/CAR chimera (TR beta A/B and C domains fused to CAR D, E, F domains)
Assay: cell_activity
Conditions: no ligand, charcoal-stripped serum; JEG3 cells

AAAGGTAAGATCAGGGACGTGACCGCAG (double strand) [T3RE]
activity (% of TR beta response): > 50
